Data from the RNAGym collection of RNA variant scans (doi:10.7554/elife.80360).

B1: Hairpin Ribozyme (parent)
chain: GUCCUCUUUCACGUGCGCGUGAAAGAGAGAAGUGAACCAGAGAAACACACGUUGUGGUAUAUUACCUGGUA

Variants of: B1
Experiment: self-cleavage, relative activity (ratio to wild type); higher = more cleavage; co-transcriptional

Row | Variant | self-cleavage
1 | C12A U62C | 0.0739
2 | A11G A41G | 1.01
3 | C12A C66U | 0.418
4 | C12A G51U | 0.933
5 | C12A G51C | 0.78
6 | C12A U52G | 0.757
7 | A11G G69U | 0.215
8 | C12U G15U | 1.08
9 | C12U G15A | 0.687
10 | G13A | 0.87
11 | G13A A59G | 0.104
12 | A11U U14G | 0.536
13 | A11U U14C | 0.964
14 | A11U G13U | 0.54
15 | A11U G13C | 0.737
16 | A11C G40A | 0.318
17 | A11U U62A | 0.148
18 | G13A C48A | 0.144
19 | A11U U63A | 0.22
20 | G13A A43U | 0.144
21 | A11G G34U | 1.17
22 | A11G G51A | 0.93
23 | A11G G51U | 0.713
24 | C12A A22G | 0.692

Row | Variant | self-cleavage
25 | C12U U20G | 0.76
26 | A11U U60G | 0.509
27 | A11U U60A | 0.708
28 | A11C U67A | 0.116
29 | A11C U67G | 0.168
30 | C12U C38G | 0.235
31 | C12A A64U | 0.176
32 | A11C G42U | 0.214
33 | A11G G40U | 0.149
34 | G13A A61U | 0.136
35 | A11C U55A | 0.448
36 | A11C U55C | 0.183
37 | C12G G19A | 0.808
38 | C12G G19U | 0.997
39 | C12G G19C | 1.24
40 | C12A C48G | 0.137
41 | C12A C48A | 0.162
42 | C12U G19U | 0.954
43 | G13A A44G | 0.125
44 | A11C G51U | 1.13
45 | A11C G51C | 0.8
46 | G13A A23C | 0.571
47 | C12U C16U | 0.916
48 | A11C G54A | 0.508

Row | Variant | self-cleavage
49 | C12U A47U | 0.194
50 | C12U A47G | 0.131
51 | C12G G69A | 0.284
52 | C12G G69U | 0.259
53 | C12G C50A | 0.306
54 | C12A G40A | 0.237
55 | A11G G54C | 0.297
56 | A11G A23C | 0.596
57 | A11G A23U | 0.93
58 | C12G A44U | 0.147
59 | C12G A44G | 0.156
60 | G13A C38A | 0.154
61 | G13A C38G | 0.0904
62 | A11G A28U | 0.447
63 | A11U G51C | 0.706
64 | C12U G57C | 0.222
65 | A11U G21C | 0.549
66 | A11U U52A | 0.85
67 | A11U U52C | 0.891
68 | C12A G34A | 1.21
69 | A11U U53G | 0.69
70 | A11U U53C | 0.975
71 | C12A G54C | 0.389
72 | C12A G54U | 0.53

Row | Variant | self-cleavage
73 | C12U U60G | 0.504
74 | C12U U60C | 1.02
75 | A11G A59G | 0.199
76 | A11G U14A | 0.916
77 | A11C U60A | 0.716
78 | A11C U60G | 0.714
79 | C12G U62A | 0.176
80 | C12G U62C | 0.235
81 | C12A A28U | 0.34
82 | C12G G42U | 0.343
83 | C12U U53C | 0.862
84 | A11C G32U | 0.063
85 | A11C G32A | 0.179
86 | A11U G42A | 0.136
87 | C12U A44U | 0.0952
88 | C12U A44G | 0.201
89 | A11G A45G | 0.271
90 | A11G A45C | 0.124
91 | C12A U63C | 0.2
92 | A11G U62A | 0.154
93 | A11G U67C | 0.214
94 | A11C G57U | 0.323
95 | A11U A44C | 0.216
96 | A11G A49C | 0.124

Row | Variant | self-cleavage
97 | C12U A61U | 0.133
98 | C12U A61G | 0.255
99 | C12U A22U | 0.759
100 | C12U A22G | 0.748
101 | C12G U70A | 0.728
102 | C12G U67C | 0.233
103 | C12G C38U | 0.392
104 | C12A A36C | 0.523
105 | A11U U55A | 0.154
106 | C12G C37A | 0.159
107 | C12U C66G | 0.126
108 | C12U C66U | 0.514
109 | C12A A45C | 0.137
110 | C12G A23G | 0.853
111 | C12G A23C | 0.511
112 | C12G A23U | 0.753
113 | G13A A35G | 0.732
114 | G13A A35U | 0.78
115 | A11G G19C | 0.784
116 | C12A G69A | 0.289
117 | A11U G34U | 1.36
118 | G13A A22G | 0.676
119 | G13A A22C | 0.607
120 | A11U C50G | 0.258

Row | Variant | self-cleavage
121 | A11G C18G | 0.816
122 | A11U A45U | 0.255
123 | C12A G25A | 0.486
124 | C12A G25U | 0.559
125 | A11U A36G | 0.7
126 | A11U A61U | 0.247
127 | C12G C65U | 0.28
128 | C12G C65G | 0.174
129 | A11G C37U | 0.357
130 | A11C G27U | 0.365
131 | C12U G42C | 0.265
132 | C12A A23C | 0.762
133 | C12G G57C | 0.165
134 | A11U G69A | 0.402
135 | C12U A45G | 0.162
136 | C12U A45U | 0.163
137 | A11U A59C | 0.137
138 | A11U A59U | 0.256
139 | G13A C46U | 0.221
140 | G13A A41U | 0.964
141 | G13A A41G | 0.777
142 | A11U C12G | 0.74
143 | C12U U62C | 0.27
144 | A11U A49U | 0.251

Row | Variant | self-cleavage
145 | A11U A49C | 0.24
146 | G13A C18A | 1.02
147 | A11U A30G | 0.0913
148 | C12G U52G | 0.718
149 | C12G G25C | 0.489
150 | A11U A24G | 0.813
151 | C12A A35U | 0.635
152 | C12G A47C | 0.417
153 | A11U G40A | 0.242
154 | A11U G40C | 0.178
155 | C12U A43U | 0.22
156 | C12U A43G | 0.0708
157 | A11C G56C | 0.108
158 | C12G A28G | 0.889
159 | C12G A59U | 0.134
160 | C12G A39G | 0.29
161 | C12G G54A | 0.543
162 | A11G A24C | 0.746
163 | C12G G13A | 0.851
164 | A11G C46G | 0.0993
165 | A11G C46A | 0.0804
166 | A11G A47U | 0.131
167 | A11G A47G | 0.0539
